Results published in paper PMC6509496, “Crystal structure of the TreS:Pep2 complex, initiating α-glucan synthesis in the GlgE pathway of mycobacteria” (The Journal of Biological Chemistry, 2019).

Target: the molecule itself
Assay: SEC

| Protein | binding result |
| --- | --- |
| Mycobacterium tuberculosis TreS P511W (enzyme, also called Mtb TreS-P511W) MNEAEHSVEHPPVQGSHVEGGVVEHPDAKDFGSAAALPADPTWFKHAVFYEVLVRAFFDASADGSGDLRGLIDRLDYLQWLGIDCIWLPPFYDSPLRDGGYDIRDFYKVLPEFGTVDDFVALVDAAHRRGIRIITDLVMNHTSESHPWFQESRRDPDGPYGDYYVWSDTSERYTDARIIFVDTEESNWSFDPVRRQFYWHRFFSHQPDLNYDNPAVQEAMIDVIRFWLGLGIDGFRLDAVPYLFEREGTNCENLPETHAFLKRVRKVVDDEFPGRVLLAEANQWPGDVVEYFGDPNTGGDECHMAFHFPLMPRIFMAVRRESRFPISEIIAQTPPIPDMAQWGIFLRNHDELTLEMVTDEERDYMYAEYAKDPRMKANVGIRRRLAPLLDNDRNQIELFTALLLSLPGSPVLYYGDEIGMGDVIWLGDRDGVRIPMQWTPDRNAGFSTANPGRLYLPPSQDPVYGYQAVNVEAQRDTSTSLLNFTRTMLAVRRRHPAFAVGAFQELGGSNWSVLAYVRQVAGDDGDTVLCVNNLSRFPQPIELDLQQWTNYTPVELTGHVEFPRIGQVPYLLTLPGHGFYWFQLTTHEVGAPPTCGGERRL | binds |
| Mycobacterium tuberculosis TreS R320E (enzyme, also called Mtb TreS-R320E) MNEAEHSVEHPPVQGSHVEGGVVEHPDAKDFGSAAALPADPTWFKHAVFYEVLVRAFFDASADGSGDLRGLIDRLDYLQWLGIDCIWLPPFYDSPLRDGGYDIRDFYKVLPEFGTVDDFVALVDAAHRRGIRIITDLVMNHTSESHPWFQESRRDPDGPYGDYYVWSDTSERYTDARIIFVDTEESNWSFDPVRRQFYWHRFFSHQPDLNYDNPAVQEAMIDVIRFWLGLGIDGFRLDAVPYLFEREGTNCENLPETHAFLKRVRKVVDDEFPGRVLLAEANQWPGDVVEYFGDPNTGGDECHMAFHFPLMPRIFMAVREESRFPISEIIAQTPPIPDMAQWGIFLRNHDELTLEMVTDEERDYMYAEYAKDPRMKANVGIRRRLAPLLDNDRNQIELFTALLLSLPGSPVLYYGDEIGMGDVIWLGDRDGVRIPMQWTPDRNAGFSTANPGRLYLPPSQDPVYGYQAVNVEAQRDTSTSLLNFTRTMLAVRRRHPAFAVGAFQELGGSNPSVLAYVRQVAGDDGDTVLCVNNLSRFPQPIELDLQQWTNYTPVELTGHVEFPRIGQVPYLLTLPGHGFYWFQLTTHEVGAPPTCGGERRL | binds |
